# B1: recombinant human RAD51 [human] / His6-Thioredoxin-RAD54-Flag (recombinant human RAD54, wild type) [human] (parent complex)
# chain 1: MAMQMQLEANADTSVEEESFGPQPISRLEQCGINANDVKKLEEAGFHTVEAVAYAPKKELINIKGISEAKADKILAEAAKLVPMGFTTATEFHQRRSEIIQITTGSKELDKLLQGGIETGSITEMFGEFRTGKTQICHTLAVTCQLPIDRGGGEGKAMYIDTEGTFRPERLLAVAERYGLSGSDVLDNVAYARAFNTDHQTQLLYQASAMMVESRYALLIVDSATALYRTDYSGRGELSARQMHLARFLRMLLRLADEFGVAVVITNQVVAQVDGAAMFAADPKKPIGGNIIAHASTTRLYLRKGRGETRICKIYDSPCLPEAEAMFAINADGVGDAKD
# chain 2: MRRSLAPSQLAKRKPEGRSCDDEDWQPGLVTPRKRKSSSETQIQECFLSPFRKPLSQLTNQPPCLDSSQHEAFIRSILSKPFKVPIPNYQGPLGSRALGLKRAGVRRALHDPLEKDALVLYEPPPLSAHDQLKLDKEKLPVHVVVDPILSKVLRPHQREGVKFLWECVTSRRIPGSHGCIMADEMGLGKTLQCITLMWTLLRQSPECKPEIDKAVVVSPSSLVKNWYNEVGKWLGGRIQPLAIDGGSKDEIDQKLEGFMNQRGARVSSPILIISYETFRLHVGVLQKGSVGLVICDEGHRLKNSENQTYQALDSLNTSRRVLISGTPIQNDLLEYFSLVHFVNSGILGTAHEFKKHFELPILKGRDAAASEADRQLGEERLRELTSIVNRCLIRRTSDILSKYLPVKIEQVVCCRLTPLQTELYKRFLRQAKPAEELLEGKMSVSSLSSITSLKKLCNHPALIYDKCVEEEDGFVGALDLFPPGYSSKALEPQLSGKMLVLDYILAVTRSRSSDKVVLVSNYTQTLDLFEKLCRARRYLYVRLDGTMSIKKRAKVVERFNSPSSPDFVFMLSSKAGGCGLNLIGANRLVMFDPDWNPANDEQAMARVWRDGQKKTCYIYRLLSAGTIEEKIFQRQSHKKALSSCVVDEEQDVERHFSLGELKELFILDEASLSDTHDRLHCRRCVNSRQIRPPPDGSDCTSDLAGWNHCTDKWGLRDEVLQAAWDAASTAITFVFHQRSHEEQRGLR
# Variants of: B1
# Test: pull-down (silver-stained gel, quantified); read off a plot
row,Variant,ratio to parent
1,chain 2 T41D,~0.25
2,chain 2 T59D,~0.58
3,chain 2 T700D,~1.3
4,"chain 2 T41D, chain 2 T59D, chain 2 T700D",~0.27
5,"chain 2 T41D, chain 2 T59D",~0.41

# Variants of: B1
# Test: as above
# Remark: another data set of the same source
row,Variant,ratio to parent
1,chain 2 T700D,~1.2
